In patent publication US20230151082A1:

B1: MSLN34 phage clone (scFv displayed on phage, KBIO human synthetic scFv phage display library KscFv-I) (scFv, not shown: large carriers; small tags and cut ends)
scFv: EVQLVESGGGLVQPGGSLRLSCAASGFTFSDYGMHWVRQAPGKGLEWVSSIYGSGGHTGYADSVKGRFTISRDNSKNTLYLQMNSLRAEDTAVYYCAKQHAYRYSYAFDVWGQGTLVTVSSGGGGSGGGGSGGGGSDIQMTQSPSSLSASVGDRVTITCRASQSISNWLNWYQQKPGKAPKLLIYATSSLQSGVPSRFSGSGSGTDFTLTISSLQPEDFATYYCQQSYSFPFTFGQGTKVEIK
modifications: displayed on M13 phage
B2: anti-MSLN-scFv antibody MSLN34 (purified scFv from E. coli periplasm) (scFv, not shown: small tags and cut ends)
scFv: EVQLVESGGGLVQPGGSLRLSCAASGFTFSDYGMHWVRQAPGKGLEWVSSIYGSGGHTGYADSVKGRFTISRDNSKNTLYLQMNSLRAEDTAVYYCAKQHAYRYSYAFDVWGQGTLVTVSSGGGGSGGGGSGGGGSDIQMTQSPSSLSASVGDRVTITCRASQSISNWLNWYQQKPGKAPKLLIYATSSLQSGVPSRFSGSGSGTDFTLTISSLQPEDFATYYCQQSYSFPFTFGQGTKVEIK
B3: MSLN37 phage clone (scFv displayed on phage, KBIO human synthetic scFv phage display library KscFv-I) (scFv, V domains shown)
VH: EVQLVESGGGLVQPGGSLRLSCAASGFTFSSYAMHWVRQAPGKGLEWVSGISGSGGTTYYADSVKGRFTISRDNSKNTLYLQMNSLRAEDTAVYYCAKEVEGQSQEYFDIWGQGTLVTVSS
VL: DIQMTQSPSSLSASVGDRVTITCRASQSIANYLNWYQQKPGKAPKLLIYAASNLQSGVPSRFSGSGSGTDFTLTISSLQPEDFATYYCQQSYSFPYTFGQGTKVEIK

How the values were obtained:
[1] = target: mesothelin present on the cell membrane of mesothelin-expressing cancer cell lines (AsPC-1; OVCAR-3; NCI-H2052) (human) (UniProt Q13421); assay: flow cytometry, phage clone on AsPC-1 cells, anti-M13-FITC
[2] = target: mesothelin present on the cell membrane of mesothelin-expressing cancer cell lines (AsPC-1; OVCAR-3; NCI-H2052) (human) (UniProt Q13421); assay: flow cytometry, phage clone on AsPC-1 cells against control K562 cells
[3] = target: human mesothelin protein (MSLN, Acro Biosystems), conjugated to a histidine tag (human) (UniProt Q13421); assay: ELISA, purified scFv on coated human mesothelin protein (1 ug/mL), anti-StrepMAB HRP

Binder	relative peak shift value [1] [%]	relative peak shift value [2] [%]	EC50 [3] [µM]
B1	> 5	16.2	
B2			0.083
B3	> 5	5.9	
